According to US20040175796A1 (SOLVAY PHARMACEUTICALS B V, published 2004):
No end group written: not given here.

Key:
[1] = target: T1, IGS4B (IGS4BPROT), human G-protein coupled receptor IGS4, polymorphic form B (human, UniProt Q9GZQ4 4-415); experiment: cell-based or functional assay
T1 chain: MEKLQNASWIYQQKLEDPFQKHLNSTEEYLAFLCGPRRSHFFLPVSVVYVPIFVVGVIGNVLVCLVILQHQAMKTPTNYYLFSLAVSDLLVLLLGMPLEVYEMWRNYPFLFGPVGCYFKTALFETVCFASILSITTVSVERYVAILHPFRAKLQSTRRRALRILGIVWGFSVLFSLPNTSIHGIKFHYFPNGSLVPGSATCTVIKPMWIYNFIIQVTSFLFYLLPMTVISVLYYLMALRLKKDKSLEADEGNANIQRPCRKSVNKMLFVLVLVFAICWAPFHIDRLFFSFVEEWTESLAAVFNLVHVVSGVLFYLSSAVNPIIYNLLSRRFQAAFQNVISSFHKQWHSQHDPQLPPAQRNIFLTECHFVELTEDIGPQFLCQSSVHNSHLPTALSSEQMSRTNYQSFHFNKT

[2] = target: IGS4A (IGS4APROT), human G-protein coupled receptor IGS4, polymorphic form A (human, UniProt Q9GZQ4 4-415); experiment: cell-based or functional assay

EC50, calcium mobilisation (FLIPR) [1]: 0.05 nM
LogEC50, calcium mobilisation (FLIPR) [1]: -10.6 log M
EC50, calcium mobilisation (FLIPR) [2]: 53 nM
log EC50, calcium mobilisation (FLIPR) [2]: -7.27 log M
Binder: YKVNEYQGPVAPSGGFFLFRPRN-NH2 (peptide, UniProt P12760 144-166, looked up) [rat Neuromedin U-23]
